Data published in patent publication US20150376265A1 (Genentech, published 2015).

Columns and labels:
[1] = target: T1, Complex I with gH P171S, on virions of HB1 - mutant virus 3 (HCMV, UniProt P12824 24-743; P16832 31-278; P16837 28-171; F5HCP3 26-214; F5HET4 19-129); assay: cell-based or functional assay
T1 chain 1: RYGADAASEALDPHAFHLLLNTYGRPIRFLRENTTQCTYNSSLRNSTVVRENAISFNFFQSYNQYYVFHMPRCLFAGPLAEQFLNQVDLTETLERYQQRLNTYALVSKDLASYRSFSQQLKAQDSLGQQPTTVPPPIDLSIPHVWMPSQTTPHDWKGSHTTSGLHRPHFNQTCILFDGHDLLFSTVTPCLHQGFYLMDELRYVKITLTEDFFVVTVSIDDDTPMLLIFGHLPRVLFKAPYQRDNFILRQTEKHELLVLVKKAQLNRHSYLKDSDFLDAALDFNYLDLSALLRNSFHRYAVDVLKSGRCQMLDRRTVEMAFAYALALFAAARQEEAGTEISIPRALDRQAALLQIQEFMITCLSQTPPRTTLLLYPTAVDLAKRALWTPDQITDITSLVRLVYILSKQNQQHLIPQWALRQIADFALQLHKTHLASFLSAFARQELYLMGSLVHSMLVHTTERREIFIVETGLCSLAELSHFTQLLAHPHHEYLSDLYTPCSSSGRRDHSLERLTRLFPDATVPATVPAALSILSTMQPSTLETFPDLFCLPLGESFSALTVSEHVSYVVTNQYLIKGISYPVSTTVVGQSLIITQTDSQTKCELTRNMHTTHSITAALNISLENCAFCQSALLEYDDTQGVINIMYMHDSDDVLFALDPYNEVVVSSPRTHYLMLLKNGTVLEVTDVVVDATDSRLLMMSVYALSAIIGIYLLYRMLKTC
T1 chain 2: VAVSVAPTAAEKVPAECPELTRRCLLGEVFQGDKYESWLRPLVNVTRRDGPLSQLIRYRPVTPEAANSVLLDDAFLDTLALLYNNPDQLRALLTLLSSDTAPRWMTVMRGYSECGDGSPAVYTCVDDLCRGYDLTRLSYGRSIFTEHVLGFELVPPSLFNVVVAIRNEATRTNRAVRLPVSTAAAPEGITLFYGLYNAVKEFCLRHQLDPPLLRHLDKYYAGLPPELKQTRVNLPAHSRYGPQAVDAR
T1 chain 3: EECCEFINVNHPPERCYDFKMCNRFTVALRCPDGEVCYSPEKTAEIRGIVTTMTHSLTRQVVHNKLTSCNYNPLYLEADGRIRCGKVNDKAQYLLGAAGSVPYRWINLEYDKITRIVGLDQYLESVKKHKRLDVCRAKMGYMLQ
T1 chain 4: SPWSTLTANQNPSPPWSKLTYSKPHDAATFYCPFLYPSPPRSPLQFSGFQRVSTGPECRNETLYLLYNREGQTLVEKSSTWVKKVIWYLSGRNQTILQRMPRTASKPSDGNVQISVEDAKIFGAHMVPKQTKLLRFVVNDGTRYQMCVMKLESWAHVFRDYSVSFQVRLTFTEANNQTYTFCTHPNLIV
T1 chain 5: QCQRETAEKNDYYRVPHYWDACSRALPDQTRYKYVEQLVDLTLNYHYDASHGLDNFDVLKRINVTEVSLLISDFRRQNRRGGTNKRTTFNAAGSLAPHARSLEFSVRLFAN

[2] = target: T2, gH/gL, full-length, on the surface of transfected HEK-293T cells (HCMV, UniProt P12824 24-743; P16832 31-278); assay: FACS on transfected HEK-293T cells
T2 construct: also called cells expressing gH/gL alone; cell-surface expressed gH/gL

[3] = target: T3, gH/gL/gO on the surface of cells (HCMV, UniProt P12824 24-743; P16832 31-278; F5HGP1 32-472); assay: FACS on transfected cells, data not shown
T3 construct: also called Complex II; cells expressing gH/gL/gO
T3 sequence (F5HGP1 32-472 limits assumed, one chain of several): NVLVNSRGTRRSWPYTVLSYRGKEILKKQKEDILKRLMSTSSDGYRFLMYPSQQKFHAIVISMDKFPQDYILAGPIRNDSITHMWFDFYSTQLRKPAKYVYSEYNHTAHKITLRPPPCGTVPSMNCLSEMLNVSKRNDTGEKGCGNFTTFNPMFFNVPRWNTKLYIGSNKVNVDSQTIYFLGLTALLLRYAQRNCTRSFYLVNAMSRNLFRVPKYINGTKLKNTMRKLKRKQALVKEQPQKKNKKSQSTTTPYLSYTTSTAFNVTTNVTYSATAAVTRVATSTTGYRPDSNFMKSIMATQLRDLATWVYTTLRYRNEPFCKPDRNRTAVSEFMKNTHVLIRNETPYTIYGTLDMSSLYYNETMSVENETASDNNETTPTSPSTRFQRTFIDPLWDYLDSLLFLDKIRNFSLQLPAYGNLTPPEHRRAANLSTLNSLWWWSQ

B1: hu8G8 (lambda4 8G8 graft and hu8G8.VH1) (antibody, V domains shown)
VH: EVQLVQSGAEVKKPGASVKVSCKASGYTFTNYGMNWVRQAPGQGLEWIGWINTYTGEPTYADDFKGRVTITRDTSTSTAYLELSSLRSEDTAVYYCARSWYYVSNYWYFDVWGQGTLVTVSS
VL: SVLTQSPSASASLGASVKLTCTLSSQHSTYTIEWYQQQPGKGPRYLMKLKKDGSHSTGDGIPDRFSGSSSGADRYLTISNLQSEDEADYYCGVGDTIKEQFVYVFGGGTKLTVLG
notes: also called hu8G8 with VH1; Humanized 8G8 with VH1
**Q.** For B1, which “hu8G8 EC50, neutralisation of HB1 - mutant virus 3, Data Set 1” value [1] is on record?
**A.** 1 ng/mL

**Q.** And the “hu8G8 EC50, neutralisation of HB1 - mutant virus 3, Data Set 2” value [1]?
**A.** 0.1 ng/mL

**Q.** Does B1 bind [2]?
**A.** no binding (tested: saturating primary antibody)

**Q.** Does B1 bind [3]?
**A.** no binding
